Reference: US20200262877A1, “ION CHANNEL-BINDING PEPTIDES AND METHODS OF USE THEREOF” (priority 2017, published 2020)

Key:
[1] = biological target: T1, α4β2 (Homo sapiens, UniProt P17787+P43681); test: Ion channel panel (IonWorks Barracuda): α4β2; assay type: cell-based; conditions: 100% = no change, <100% = inhibition
T1 construct: host or cells: HEK293 or CHO
Procedure: (§1) This example describes a method for assaying ion channel activity in cells.
(§2) Peptides were screened in duplicate at final concentrations of 20 μM and 200 nM, as determined by amino acid analysis, and diluted into HEPES buffered physiological saline (HBPS). HEK293 or CHO cells from the American Type Culture Collection (ATCC) were transfected with the appropriate ion channel before use. HEK293 cells were grown in Dulbecco's Modified Eagle Medium/Nutrient Mixture F-12, and CHO cells were cultured in Ham's F-12 media. All cultures were supplemented with 10% fetal bovine serum, 100 U/ml penicillin G, 100 μg/ml streptomycin sulfate, and the appropriate selection antibiotics. Prior to use, cells were washed twice with Hank's Balanced Salt Solution, and treated with Accutase cell detachment solution (Sigma-Aldrich). Cells were then washed. Peptides and controls were incubated with cells for at least five minutes.
(§3) Percent inhibition was defined as: (1-(Ipeptide/Icontrol))×100%).
(§4) Percent values were calculated using the following formula: % activation=(IPeptide/Icontrol)×100%, where IPeptide is the current produced by co-application a peptide with agonist, and Icontrol refers to the current produced by stimulation in control. Control used for each ion channel is the reference compound matched to a particular channel, as illustrated in TABLE 10 below.

[2] = biological target: T2, NR2B (Homo sapiens, UniProt Q13224); test: Ion channel panel (IonWorks Barracuda): NR2B; assay type: cell-based; conditions: 100% = no change, <100% = inhibition
T2 construct: host or cells: HEK293 or CHO
Procedure: as §1, §2, §3, §4

[3] = biological target: T3, Kv1.1 (Homo sapiens, UniProt Q09470); test: cell-based; assay type: cell-based; conditions: 100% = no change, <100% = inhibition
T3 construct: host or cells: HEK293 or CHO
T3 sequence (Q09470 whole entry): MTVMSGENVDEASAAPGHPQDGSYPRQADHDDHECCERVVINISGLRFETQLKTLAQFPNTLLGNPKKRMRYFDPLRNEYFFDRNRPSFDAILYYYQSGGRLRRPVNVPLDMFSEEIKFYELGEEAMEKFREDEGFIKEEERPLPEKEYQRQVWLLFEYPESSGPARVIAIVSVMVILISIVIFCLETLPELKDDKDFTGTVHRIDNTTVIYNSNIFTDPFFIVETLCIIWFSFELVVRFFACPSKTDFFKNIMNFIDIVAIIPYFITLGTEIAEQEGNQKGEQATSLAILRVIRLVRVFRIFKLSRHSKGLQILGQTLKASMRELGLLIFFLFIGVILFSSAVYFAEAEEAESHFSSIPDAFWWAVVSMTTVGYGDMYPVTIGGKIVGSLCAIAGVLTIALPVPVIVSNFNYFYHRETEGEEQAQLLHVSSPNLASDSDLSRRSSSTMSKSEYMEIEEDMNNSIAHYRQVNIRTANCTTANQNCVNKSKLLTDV
Procedure: as §1, §2, §3, §4

[4] = biological target: T4, Kv1.3 (Homo sapiens, UniProt P22001); test: cell-based; assay type: cell-based; conditions: 100% = no change, <100% = inhibition
T4 construct: host or cells: HEK293 or CHO
Procedure: as §1, §2, §3, §4

[5] = biological target: T5, Kv1.2 (Homo sapiens, UniProt P16389); test: cell-based; assay type: cell-based; conditions: 100% = no change, <100% = inhibition
T5 construct: host or cells: HEK293 or CHO
T5 sequence (P16389 whole entry): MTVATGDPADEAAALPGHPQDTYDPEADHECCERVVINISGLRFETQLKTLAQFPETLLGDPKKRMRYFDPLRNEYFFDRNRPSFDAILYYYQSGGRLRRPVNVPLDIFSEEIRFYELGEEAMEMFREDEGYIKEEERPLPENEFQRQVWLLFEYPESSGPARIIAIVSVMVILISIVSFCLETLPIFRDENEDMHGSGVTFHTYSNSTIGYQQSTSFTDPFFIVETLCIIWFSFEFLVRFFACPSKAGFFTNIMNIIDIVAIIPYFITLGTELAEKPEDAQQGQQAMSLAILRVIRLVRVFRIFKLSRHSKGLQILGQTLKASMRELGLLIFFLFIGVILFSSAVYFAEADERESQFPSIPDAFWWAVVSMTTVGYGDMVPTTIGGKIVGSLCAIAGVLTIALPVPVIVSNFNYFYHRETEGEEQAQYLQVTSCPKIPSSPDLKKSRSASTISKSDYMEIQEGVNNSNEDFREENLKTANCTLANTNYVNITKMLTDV
Procedure: as §1, §2, §3, §4

[6] = biological target: T6, Cav2.1 (Homo sapiens, UniProt O00555); test: cell-based; conditions: 100% = no change, <100% = inhibition
T6 construct: host or cells: HEK293 or CHO
Procedure: as §1, §2, §3, §4

[7] = biological target: T7, Kv2.1 (Homo sapiens, UniProt Q14721); test: cell-based; conditions: 100% = no change, <100% = inhibition
T7 construct: host or cells: HEK293 or CHO
Procedure: as §1, §2, §3, §4

[8] = biological target: T8, Cav2.2 (Homo sapiens, UniProt Q00975); test: cell-based; conditions: 100% = no change, <100% = inhibition
T8 construct: host or cells: HEK293 or CHO
Procedure: as §1, §2, §3, §4

[9] = biological target: hERG (Homo sapiens, UniProt Q12809); test: in vitro; conditions: 100% = no change, <100% = inhibition
Procedure: as §1, §2, §3, §4

[10] = biological target: Nav1.5 (Homo sapiens, UniProt Q14524); test: in vitro; conditions: 100% = no change; for Activity of Nav1.5 with peptide, expressed as a percentage of the reference compound: peptide at 0.2 μM; for Activity of Nav1.5 with peptide (percentage of the reference compound): peptide at 20 μM
Chain of Nav1.5 (Q14524 whole entry): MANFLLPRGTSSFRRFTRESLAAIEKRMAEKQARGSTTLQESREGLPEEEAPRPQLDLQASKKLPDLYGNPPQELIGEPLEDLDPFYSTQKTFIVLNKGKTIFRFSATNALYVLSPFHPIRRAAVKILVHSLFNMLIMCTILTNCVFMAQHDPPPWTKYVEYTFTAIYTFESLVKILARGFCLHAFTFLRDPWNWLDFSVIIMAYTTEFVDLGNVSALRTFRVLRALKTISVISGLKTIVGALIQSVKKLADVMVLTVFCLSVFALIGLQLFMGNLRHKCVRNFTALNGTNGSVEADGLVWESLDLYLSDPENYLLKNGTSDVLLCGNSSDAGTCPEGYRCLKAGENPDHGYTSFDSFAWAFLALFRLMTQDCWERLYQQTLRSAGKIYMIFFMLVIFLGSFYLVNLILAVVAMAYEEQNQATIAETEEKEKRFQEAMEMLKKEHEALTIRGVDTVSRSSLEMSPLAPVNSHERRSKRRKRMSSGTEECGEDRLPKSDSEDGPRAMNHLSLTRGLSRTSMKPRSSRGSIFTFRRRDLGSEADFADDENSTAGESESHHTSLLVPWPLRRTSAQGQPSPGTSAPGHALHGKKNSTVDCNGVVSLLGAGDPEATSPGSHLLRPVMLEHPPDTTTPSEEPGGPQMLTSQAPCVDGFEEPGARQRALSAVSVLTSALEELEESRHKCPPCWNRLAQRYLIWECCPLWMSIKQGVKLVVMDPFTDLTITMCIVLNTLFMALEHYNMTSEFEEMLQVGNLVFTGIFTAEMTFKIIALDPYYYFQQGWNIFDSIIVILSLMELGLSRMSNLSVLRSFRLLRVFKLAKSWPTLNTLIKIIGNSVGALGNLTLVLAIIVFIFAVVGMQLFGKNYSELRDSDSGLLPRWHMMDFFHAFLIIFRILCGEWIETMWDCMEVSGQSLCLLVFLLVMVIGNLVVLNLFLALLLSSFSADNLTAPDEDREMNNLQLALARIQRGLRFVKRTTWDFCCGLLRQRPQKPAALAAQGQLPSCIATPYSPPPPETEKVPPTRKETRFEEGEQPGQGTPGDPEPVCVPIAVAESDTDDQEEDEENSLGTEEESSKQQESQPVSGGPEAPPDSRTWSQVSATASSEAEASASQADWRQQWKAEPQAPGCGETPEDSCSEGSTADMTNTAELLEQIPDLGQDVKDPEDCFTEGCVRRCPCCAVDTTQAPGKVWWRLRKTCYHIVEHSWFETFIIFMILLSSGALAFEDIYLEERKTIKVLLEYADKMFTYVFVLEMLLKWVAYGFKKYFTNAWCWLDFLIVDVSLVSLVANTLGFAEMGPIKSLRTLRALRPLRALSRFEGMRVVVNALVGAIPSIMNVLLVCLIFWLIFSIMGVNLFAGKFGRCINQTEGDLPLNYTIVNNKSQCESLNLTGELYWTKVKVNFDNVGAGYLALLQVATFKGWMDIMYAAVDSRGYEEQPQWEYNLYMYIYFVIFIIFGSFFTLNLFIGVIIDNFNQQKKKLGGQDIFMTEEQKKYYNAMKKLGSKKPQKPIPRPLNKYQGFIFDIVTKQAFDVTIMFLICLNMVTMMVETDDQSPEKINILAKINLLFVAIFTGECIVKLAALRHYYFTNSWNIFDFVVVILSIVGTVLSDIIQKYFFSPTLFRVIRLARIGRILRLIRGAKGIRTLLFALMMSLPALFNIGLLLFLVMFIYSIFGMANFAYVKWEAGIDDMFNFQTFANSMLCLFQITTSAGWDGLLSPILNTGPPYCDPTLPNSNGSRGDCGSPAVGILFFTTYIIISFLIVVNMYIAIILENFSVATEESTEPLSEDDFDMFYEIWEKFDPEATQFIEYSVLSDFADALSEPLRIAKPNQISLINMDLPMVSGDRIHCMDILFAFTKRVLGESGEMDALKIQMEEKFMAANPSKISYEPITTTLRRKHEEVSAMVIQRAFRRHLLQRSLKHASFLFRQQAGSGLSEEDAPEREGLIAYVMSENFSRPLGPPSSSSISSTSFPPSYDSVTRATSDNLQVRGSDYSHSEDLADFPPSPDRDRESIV
Procedure: as §1, §2, §3, §4

[11] = biological target: T9, NR2A (Homo sapiens, UniProt Q12879); test: Ion channel panel (IonWorks Barracuda): NR2A; assay type: cell-based; conditions: 100% = no change, <100% = inhibition
T9 construct: host or cells: HEK293 or CHO
Procedure: as §1, §2, §3, §4

[12] = biological target: T10, 5HT3a (Homo sapiens, UniProt P46098); test: Ion channel panel (IonWorks Barracuda): 5HT3a; assay type: cell-based
T10 construct: host or cells: HEK293 or CHO
T10 sequence (P46098 whole entry, looked up): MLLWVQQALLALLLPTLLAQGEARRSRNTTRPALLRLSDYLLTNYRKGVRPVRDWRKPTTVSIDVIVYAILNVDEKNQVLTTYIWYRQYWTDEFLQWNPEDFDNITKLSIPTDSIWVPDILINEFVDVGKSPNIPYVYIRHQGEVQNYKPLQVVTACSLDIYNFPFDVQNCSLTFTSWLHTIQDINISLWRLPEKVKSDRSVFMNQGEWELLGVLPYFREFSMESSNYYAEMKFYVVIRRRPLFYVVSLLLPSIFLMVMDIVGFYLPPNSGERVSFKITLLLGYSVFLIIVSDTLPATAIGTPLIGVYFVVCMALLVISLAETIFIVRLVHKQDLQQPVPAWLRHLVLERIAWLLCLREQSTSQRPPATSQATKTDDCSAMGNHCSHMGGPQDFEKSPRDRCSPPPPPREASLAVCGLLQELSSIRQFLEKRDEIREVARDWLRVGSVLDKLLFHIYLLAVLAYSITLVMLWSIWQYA
Procedure: as §1, §2, §3, §4

[13] = biological target: T11, Nav1.7 (Homo sapiens, UniProt Q15858); test: cell-based; assay type: cell-based; conditions: 100% = no change; for Activity of Nav1.7 with peptide, expressed as a percentage of the reference compound: peptide at 0.2 μM; for Activity of Nav1.7 with peptide (percentage of the reference compound): peptide at 20 μM
T11 construct: host or cells: HEK293 or CHO
T11 sequence (Q15858 whole entry): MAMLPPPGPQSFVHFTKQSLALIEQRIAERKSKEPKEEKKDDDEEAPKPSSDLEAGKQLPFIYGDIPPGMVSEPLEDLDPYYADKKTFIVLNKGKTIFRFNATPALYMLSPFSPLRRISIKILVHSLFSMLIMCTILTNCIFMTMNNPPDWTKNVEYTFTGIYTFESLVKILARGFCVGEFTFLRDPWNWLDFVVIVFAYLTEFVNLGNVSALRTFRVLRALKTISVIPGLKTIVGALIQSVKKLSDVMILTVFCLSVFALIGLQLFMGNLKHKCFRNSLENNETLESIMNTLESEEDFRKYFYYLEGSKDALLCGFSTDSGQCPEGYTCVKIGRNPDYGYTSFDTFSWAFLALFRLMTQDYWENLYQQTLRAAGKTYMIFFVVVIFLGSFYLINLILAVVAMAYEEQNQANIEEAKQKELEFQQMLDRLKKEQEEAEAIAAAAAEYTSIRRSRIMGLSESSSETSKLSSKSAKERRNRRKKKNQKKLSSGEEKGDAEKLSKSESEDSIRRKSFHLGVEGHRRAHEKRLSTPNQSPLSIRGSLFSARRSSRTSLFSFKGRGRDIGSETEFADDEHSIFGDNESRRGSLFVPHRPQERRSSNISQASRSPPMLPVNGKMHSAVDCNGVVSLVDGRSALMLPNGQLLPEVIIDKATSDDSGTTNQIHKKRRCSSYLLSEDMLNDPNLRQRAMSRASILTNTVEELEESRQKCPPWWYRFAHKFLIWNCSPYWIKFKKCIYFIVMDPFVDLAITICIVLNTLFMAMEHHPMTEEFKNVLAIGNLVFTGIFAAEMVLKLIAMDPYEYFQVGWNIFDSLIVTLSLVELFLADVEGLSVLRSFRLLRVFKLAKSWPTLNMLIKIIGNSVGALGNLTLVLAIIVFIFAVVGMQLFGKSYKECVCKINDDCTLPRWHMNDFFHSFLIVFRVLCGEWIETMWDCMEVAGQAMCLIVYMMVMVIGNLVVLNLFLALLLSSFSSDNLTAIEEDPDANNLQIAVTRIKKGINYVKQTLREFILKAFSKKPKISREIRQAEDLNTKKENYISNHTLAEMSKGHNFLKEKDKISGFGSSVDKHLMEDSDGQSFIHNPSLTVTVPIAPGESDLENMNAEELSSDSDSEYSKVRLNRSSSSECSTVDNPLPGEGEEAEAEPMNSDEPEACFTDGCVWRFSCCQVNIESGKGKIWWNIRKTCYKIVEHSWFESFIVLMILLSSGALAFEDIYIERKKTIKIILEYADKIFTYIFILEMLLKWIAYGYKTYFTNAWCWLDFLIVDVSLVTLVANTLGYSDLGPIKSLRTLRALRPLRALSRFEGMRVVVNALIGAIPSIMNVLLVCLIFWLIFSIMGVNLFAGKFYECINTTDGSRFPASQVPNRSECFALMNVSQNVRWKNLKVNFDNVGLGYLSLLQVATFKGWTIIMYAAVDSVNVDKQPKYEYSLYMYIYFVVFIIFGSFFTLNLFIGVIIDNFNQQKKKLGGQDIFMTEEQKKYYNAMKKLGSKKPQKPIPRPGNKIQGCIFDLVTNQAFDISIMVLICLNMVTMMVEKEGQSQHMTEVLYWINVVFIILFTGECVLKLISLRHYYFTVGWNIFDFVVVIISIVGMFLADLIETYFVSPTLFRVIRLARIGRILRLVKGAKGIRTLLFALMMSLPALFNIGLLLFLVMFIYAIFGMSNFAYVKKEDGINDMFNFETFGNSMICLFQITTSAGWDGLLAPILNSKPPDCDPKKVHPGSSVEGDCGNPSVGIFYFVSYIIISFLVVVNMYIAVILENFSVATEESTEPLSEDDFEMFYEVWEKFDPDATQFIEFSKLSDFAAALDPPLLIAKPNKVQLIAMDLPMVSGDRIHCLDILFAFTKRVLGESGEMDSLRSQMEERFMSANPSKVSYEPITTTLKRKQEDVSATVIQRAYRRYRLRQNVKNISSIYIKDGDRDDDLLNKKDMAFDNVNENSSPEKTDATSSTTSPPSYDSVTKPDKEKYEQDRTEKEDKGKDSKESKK
Procedure: as §1
as §2, with “Peptides were screened in duplicate at final concentrations of 20 μM and 200 nM, as determined by amino acid analysis, and diluted into HEPES buffered physiological saline (HBPS).” left out
as §3, §4

[14] = biological target: T12, TRPV1 (Homo sapiens, UniProt Q8NER1); test: Ion channel panel (IonWorks Barracuda): TRPV1; assay type: cell-based; conditions: 100% = no change, <100% = inhibition
T12 construct: host or cells: HEK293 or CHO
Procedure: as §1, §2, §3, §4

[15] = biological target: T13, α3β4 (Homo sapiens, UniProt P30926+P32297); test: Ion channel panel (IonWorks Barracuda): α3β4; assay type: cell-based; conditions: 100% = no change, <100% = inhibition
T13 construct: host or cells: HEK293 or CHO
Procedure: as §1, §2, §3, §4

[16] = biological target: T14, TRPA1 (Homo sapiens, UniProt O75762); test: Ion channel panel (IonWorks Barracuda): TRPA1; assay type: cell-based; conditions: 100% = no change, <100% = inhibition
T14 construct: host or cells: HEK293 or CHO
Procedure: as §1, §2, §3, §4

[17] = biological target: T15, Kir2.1 (Homo sapiens, UniProt P63252); test: Ion channel panel (IonWorks Barracuda): Kir2.1; assay type: cell-based; conditions: 100% = no change, <100% = inhibition
T15 construct: host or cells: HEK293 or CHO
Procedure: as §1, §2, §3, §4

[18] = tested on: GABA; test: Ion channel panel (IonWorks Barracuda): GABA; assay type: cell-based; conditions: 100% = no change, <100% = inhibition
Procedure: as §1, §2, §3, §4

[19] = first of two Nav1.5 columns (probably TP1)
[20] = second of two Nav1.5 columns (probably TP2)
[21] = first of two Nav1.7 columns (probably TP1)
[22] = second of two Nav1.7 columns (probably TP2)

With “5 (GSGVPINVKCRGSRDCLDPCKKAGMRFGKCINSKCHCTP) [compound 5]” the “Activity of a4b2 with peptide, expressed as a percentage of the reference compound” value ([1]; peptide at 0.2 μM) was 83%, the “Activity of a4b2 with peptide (percentage of the reference compound)” value ([1]; peptide at 20 μM) was 93% and the “Activity of NR2B with peptide, expressed as a percentage of the reference compound” value ([2]; peptide at 0.2 μM) was 112%. For the same substance, the “Activity of NR2B with peptide (percentage of the reference compound)” value ([2]; peptide at 20 μM) was 95%, the “Activity of Kv1.1 with peptide, expressed as a percentage of the reference compound” value ([3]; peptide at 0.2 μM) was 86% and the “Activity of Kv1.1 with peptide (percentage of the reference compound)” value ([3]; peptide at 20 μM) was 55%. The “Activity of Kv1.3 with peptide, expressed as a percentage of the reference compound” value ([4]; peptide at 0.2 μM) was 98%, the “Activity of Kv1.3 with peptide (percentage of the reference compound)” value ([4]; peptide at 20 μM) was 28% and the “Activity of Kv1.2 with peptide, expressed as a percentage of the reference compound” value ([5]; peptide at 0.2 μM) was 89%. For the same substance, the “Activity of Kv1.2 with peptide (percentage of the reference compound)” value ([5]; peptide at 20 μM) was 73%, the “Activity of Cav2.1 with peptide, expressed as a percentage of the reference compound” value ([6]; peptide at 0.2 μM) was 100% and the “Activity of Cav2.1 with peptide (percentage of the reference compound)” value ([6]; peptide at 20 μM) was 121%. For the same substance, the “Activity of Kv2.1 with peptide, expressed as a percentage of the reference compound” value ([7]; peptide at 0.2 μM) was 110%, the “Activity of Kv2.1 with peptide (percentage of the reference compound)” value ([7]; peptide at 20 μM) was 109% and the “Activity of Cav2.2 with peptide, expressed as a percentage of the reference compound” value ([8]; peptide at 0.2 μM) was 94%. For the same substance, the “Activity of Cav2.2 with peptide (percentage of the reference compound)” value ([8]; peptide at 20 μM) was 117%, the “Activity of hERG with peptide, expressed as a percentage of the reference compound” value ([9]; peptide at 0.2 μM) was 106% and the “Activity of hERG with peptide (percentage of the reference compound)” value ([9]; peptide at 20 μM) was 67%. For the same substance, the “Activity of Nav1.5 with peptide, expressed as a percentage of the reference compound” value [10, 19] was 107%, the “Activity of Nav1.5 with peptide, expressed as a percentage of the reference compound” value [10, 20] was 107% and the “Activity of Nav1.5 with peptide (percentage of the reference compound)” value [10, 19] was 103%. For the same substance, the “Activity of Nav1.5 with peptide (percentage of the reference compound)” value [10, 20] was 105%, the “Activity of NR2A with peptide, expressed as a percentage of the reference compound” value ([11]; peptide at 0.2 μM) was 109% and the “Activity of NR2A with peptide (percentage of the reference compound)” value ([11]; peptide at 20 μM) was 86%. For the same substance, the “Activity of 5HT3a with peptide (percentage of the reference compound)” value [12] was 80%, the “Activity of 5HT3a with peptide, expressed as a percentage of the reference compound” value [12] was 94% and the “Activity of Nav1.7 with peptide, expressed as a percentage of the reference compound” value [13, 21] was 98%. For the same substance, the “Activity of Nav1.7 with peptide, expressed as a percentage of the reference compound” value [13, 22] was 109%, the “Activity of Nav1.7 with peptide (percentage of the reference compound)” value [13, 21] was 79% and the “Activity of Nav1.7 with peptide (percentage of the reference compound)” value [13, 22] was 66%. The “Activity of TRPV1 with peptide, expressed as a percentage of the reference compound” value ([14]; peptide at 0.2 μM) was 101%, the “Activity of TRPV1 with peptide (percentage of the reference compound)” value ([14]; peptide at 20 μM) was 101% and the “Activity of a3b4 with peptide, expressed as a percentage of the reference compound” value ([15]; peptide at 0.2 μM) was 104%. For the same substance, the “Activity of a3b4 with peptide (percentage of the reference compound)” value ([15]; peptide at 20 μM) was 90%, the “Activity of TRPA1 with peptide, expressed as a percentage of the reference compound” value ([16]; peptide at 0.2 μM) was 119% and the “Activity of TRPA1 with peptide (percentage of the reference compound)” value ([16]; peptide at 20 μM) was 75%. For the same substance, the “Activity of Kir2.1 with peptide, expressed as a percentage of the reference compound” value ([17]; peptide at 0.2 μM) was 103%, the “Activity of Kir2.1 with peptide (percentage of the reference compound)” value ([17]; peptide at 20 μM) was 86% and the “Activity of GABA with peptide, expressed as a percentage of the reference compound” value ([18]; peptide at 0.2 μM) was 109%. The “Activity of GABA with peptide (percentage of the reference compound)” value ([18]; peptide at 20 μM) was 114%.
